Results from patent EP4209511A1.

T1: human CD84 on cells (human) (UniProt Q9UIB8)
T1 sequence (looked up): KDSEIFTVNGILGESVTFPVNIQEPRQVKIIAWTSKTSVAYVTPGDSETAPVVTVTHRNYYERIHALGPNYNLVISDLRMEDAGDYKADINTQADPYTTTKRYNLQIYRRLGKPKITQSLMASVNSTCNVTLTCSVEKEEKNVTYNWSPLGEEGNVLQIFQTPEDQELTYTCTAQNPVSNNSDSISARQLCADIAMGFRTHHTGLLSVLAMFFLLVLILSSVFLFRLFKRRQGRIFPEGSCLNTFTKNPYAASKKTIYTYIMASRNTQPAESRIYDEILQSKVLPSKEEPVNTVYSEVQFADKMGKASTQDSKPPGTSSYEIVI

T2: Human CD84 produced by mammalian cells (human) (UniProt Q9UIB8)
T2 sequence (looked up): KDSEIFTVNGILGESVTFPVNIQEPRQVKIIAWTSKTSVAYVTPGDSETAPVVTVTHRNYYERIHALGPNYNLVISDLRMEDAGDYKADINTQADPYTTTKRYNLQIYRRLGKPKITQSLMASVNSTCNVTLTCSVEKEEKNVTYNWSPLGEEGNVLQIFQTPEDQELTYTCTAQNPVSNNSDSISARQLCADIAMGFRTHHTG

B1: 152-1D5 (antibody, mouse IgG1, V domains shown)
VH: QVQLQQPGAEVVQPGTSVKLSCKASGYNFTNYWINWVKLRPGQGLEWIGDIYPVSGTTNYNEKFKRKATLTVDTSSSTGNMQLSSLASEDSALYYCASGTGRFAYWGQGTLVTVSA
VL: DIVLTQSPASLAVSLGQRATISCRASQSVSTSSYSYMHWYQQKPGQPPKLLIKFASNLESGVPARFSGSGSGTDFTLNIHPVEEEDTATYYCQHSWEIPYTFGGGTKLEIK
B2: GYCD84.1-108 (antibody, mouse IgG2a, V domains shown)
VH: QVQLQQSGAELVRPGTSVKMSCKAAGYTFTNYWIGWVRQRPGHGLEWIGDIYPGGGYTNYNENFKGKATLTADTSSSTAYMQLSSLTSEDSAIYYCARSTTYYSSYWCFDVWGPGTTVTVSS
VL: DIVMTQSPSSLSVSAGEKVTMSCKSSQSLLNSGNQANYLAWYQQKPGQPPKLLINGASTRESGVPDRFTGSGSGTDFTLTISSVQAEDLAVYYCQNDHSYPFTFGSGTKLEIK
B3: GYCD84.1-226 (antibody, mouse IgG1, V domains shown)
VH: QVQLQQPGAELVKPGTSVKLSCKASGYNFTRYWINWVKLRPGQGLEWIGDIYPGSGSTNYNEKFKSKATLTVDTSSSTAYMQLSRLASEDSALYYCARDTTIAYWGQGTLVTVSA
VL: DIVLTQSPTSLAVSLGQRATISCRASQSVTTSRYSYMHWYQQKPGQPPKLLIKFASNLESGVPARFSGSGSGTDFTLNIHPVEEEDTATYYCQHSWEIPYTFGGGTKLEIK
B4: GYCD84.2.32 (antibody, mouse IgG1, V domains shown)
VH: EVQLQQSGPELEKPGASVKISCKASGYSFTGYNMNWVKQSNGKSLEWIGNIDPYYGGTNYNQKFKGKATLTVDKSSSTAYMQLKSLTSEDSAVYYCARGLLSGSFPYWGQGTLVTVSA
VL: DIQMTQSPASLSASVGETVTITCRASENIYSYLAWYQQKQGKSPQLLVYNAKTLAEGVPSRFSGSGSGTQFSLKINSLHPEDFGSYFCQHHYGSPLTFGAGTKLEVK
B5: GYCD84.3.89 (antibody, mouse IgG1, V domains shown)
VH: EVKLLESGGGLVQPGGSLKLSCAASGFGFSRSWMSWVRQAPGKGLEWIGEINPDSSTINYTPSLKDKFIISRDNAKNTLFLQMSKVRSEDTALYYCATFYDGYSIYWYFDVWGAGTTVTVSS
VL: DVLMTQTPLSLPVSLGDQASISCRSSQSIVHSNGDTYLEWYLQKPGQSPKLLIYKVSNRFSGVPDRFSGSGSGTDFTLKISRVEAEDLGVYYCFQGSHVPRTFGGGTKLEIK
B6: GYCD84.1-97 (antibody, mouse IgG2a, V domains shown)
VH: QVQLQQPGAELVKPGTSVKLSCKASGYNFTSYWINWVKLRPGQGLEWIGDIYLGSGSTNYNEKFKSKATLTVDTSSSSAYMQLSSLVSEDSALYYCATSGGYLGYWGQGTTLTVSS
VL: DIVLTQSPASLAVSLGQRATISCRASQSVSTSSYSYMHWYQQKPGQPPKLLIKFASNLESGVPARFSGSGSGTDFTLNIHPVEEEDTATYYCQHSWEIPYTFGGGTKLEIK
B7: GYCD84.1-207 (antibody, mouse IgG1, V domains shown)
VH: EVKLLESGGGLVQPGGSLKLSCAASGFDFSRYWMSWVRQAPGKGLEWIGEINPDSSTINYTPSLKDKFIISRDNAKNTLYLQMSKVRSEDTALYYCARPGPTVVATYWYFDVWGAGTTVTVSS
VL: DVLMTQTPLSLPVSLGDQASISCRSSQSIVHSNGNTYLEWYLQKPGQSPKLLIYKVSSRFSGVPDRFSGSASGTDFTLKISRVEAEDLGVYYCFQGSHVPRTFGGGTKLEIK
B8: GYCD84.1-7 (antibody, mouse IgG1, V domains shown)
VH: QVTLKESGPGILQPSQTLSLTCSFSGFSLSTSGMGVGWIRQPSGKGLEWLAHIWWDDVKRYNPALKSRLTISKDTSSSQVFLKIASVDTADTATYYCARMRTSYYFDYWGQGTTLTVSS
VL: DIQMTQSPASLSASVGETVTITCRASENIFSSLAWYQQRQGKSPQLLVYNAKTLAEGVPSRFSGSGSGTQFSLKINSLQPEDFGSYYCQHHYATPFTFGSGTKLEIK
B9: GYCD84.3.298 (antibody, mouse IgG1, V domains shown)
VH: QVTLKESGPGILQPSQTLSLTCSFSGFSLSTSGMGVGWIRQPSGKGLEWLAHIWWDDVKRYNPALRSRLTISKDTSSSQVFLNIASVDTADTATYYCTRIAVTYFFDFWGQGTTLTVSS
VL: DIQMTQSPASLSASVGETVTITCRASENIFSSFAWYQQKRGRSPQLLVYNARTLAEGVPSRFSGSGSGTQFSLKINSLQPEDFGTYFCQHHYASPFTFGSGTELGVK
B10: GYCD84.2.27 (antibody, mouse IgG1, V domains shown)
VH: QVTLKESGPGILQPSQTLSLTCSFSGFSLTTSGMGVGWIRQPSGKGLEWLAHIWWDDVKRYNPALKSRLTISKDTSSSQVFLKIASVDTADTASYYCARMSTSYYFDYWGQGTTLTVSS
VL: DIVMTQSHKFMSTSLGDRVSISCKASQSLFTSVAWYQQKPGQSPKLLIYSASYRYTGVPDRFTGSGSGTDFTFTISSVQAEDLAVYYCQQHYSSPFTFGSGTKLGIK
B11: GYCD84.5.171 (antibody, mouse IgG1, V domains shown)
VH: EVQLVESGGGLVQPKGSLKLACAASGFTFNIYAMNWVRQAPGKGLEWVARIRSKSNNYARFYADSVKDRFTISRDDSQSMLYLQMNNLKTEDTAMYYCVRPLRSYFSMDYWGQGTSVTVSS
VL: SIVMTQSPKSMSMSVGERVTLSCKASENVDTYVSWYQQKPEQSPKLLIYGASNRYTGVPDRFTGSGSATDFTLTISSVKAEDLADYHCGQTYSYPWTFGGGTKLEIK
B12: R3-G7 (scFv)
scFv: QVQLVESGGGVVQPGRSLRLSCTASGFTFSSYPMHWVRQAPGKGLEWVAAISYHGRNKFYADSVKGRFTISRDDLRSTLYLQMNNLKADDTAVYSCARDRDATPGGTGVGNHGMAVWGQGTTVTVSSGGGGSGGGGSGGGGSGGGGASEIVLTQSPLSLPVTPGEPASISCKSSQSLLHSSGYNYLDWYLQKPGQSPQLLIHMGSNRASGVPARFSGSGSGTDFTLRISRVEAEDVGVYYCMQGLQTPPTFGGGTKLEIK
B13: R3-H3 (scFv)
scFv: EVQLVESGGGLVQPGGSLRLSCAASGFTFSDNAMSWVRQAPGKGLEWVSAISGTGRTTYYADSVKGRFTISRDNSKNTLYLQMNSLRAEDTAVYYCAKWDCSDGRCYWAYWGQGTLVTVSSGGGGSGGGGSGGGGSGGGGASEIVLTQSPLSLPVTLGQPASISCRSSQSLVYSDGDTYLNWFQQRPGQSPRRLIYKVSNRDSGVPDRFSGSGSGTDFTLKISRVEAEDVGVYYCMQGTHWPPNTFGQGTRLEIK

Assays:
[1] = target: T1, human CD84 on cells (human); assay: flow cytometry, hybridoma supernatant at equal antibody concentration, Ramos cells
[2] = target: T1, human CD84 on cells (human); assay: flow cytometry, hybridoma supernatant at equal antibody concentration, lymphocytes
[3] = target: T1, human CD84 on cells (human); assay: flow cytometry, hybridoma supernatant at equal antibody concentration, 300.19-CD84+ cells
[4] = target: T1, human CD84 on cells (human); assay: flow cytometry, hybridoma supernatant at equal antibody concentration, monocytes
[5] = target: T1, human CD84 on cells (human); assay: flow cytometry, hybridoma supernatant at equal antibody concentration, Raji cells
[6] = target: T2, Human CD84 produced by mammalian cells (human); assay: monoclonal phage ELISA, plate coated with CD84 antigen, anti-phage HRP antibody

Row | Binder | Ramos binding [1] [%] | Lymphocyte binding [2] [%] | 300.19-CD84 binding [3] [%] | Monocyte binding [4] [%] | Raji binding [5] [%] | ELISA signal on antigen (Ag), read at 450 nm (absorbance at 450 nm) [6]
1 | B1 | 73.4 | 24.4 | 92.5 | 72 | 97.6 | 
2 | B2 | 31.2 | 13.6 | 93.9 | 41.3 | 30.3 | 
3 | B3 | 80.2 | 28.7 | 98.1 | 76.1 | 99.9 | 
4 | B4 | 78.6 | 28.7 | 99 | 78.2 | 99.5 | 
5 | B5 | 91.3 | 24.9 | 83 | 72.7 | 99.1 | 
6 | B6 |  |  | 97.7 |  |  | 
7 | B7 |  |  | 94.2 |  |  | 
8 | B8 | 59 | 19 | 92.6 | 64.4 | 91.4 | 
9 | B9 | 28.3 | 16.6 | 93.5 | 53.9 | 45.9 | 
10 | B10 | 66.3 | 25.4 | 96.3 | 77.5 | 97.5 | 
11 | B11 | 35.1 | 26.8 | 93.2 | 64.8 | 73.9 | 
12 | B12 |  |  |  |  |  | 2.4
13 | B13 |  |  |  |  |  | 0.696
